Experimental data as given in the supplement of paper PMC10065799, “High-throughput profiling of sequence recognition by tyrosine kinases and SH2 domains using bacterial peptide display” (eLife, 2023).

Test system: AncSZ
Experiment: phosphorylation enrichment, bacterial display (enrichment ratio); higher = better substrate or ligand; peptides without Tyr show the background
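Note: 11-residue human phosphosite peptides and single-mutation variants displayed on the E. coli surface, counted by deep sequencing, each peptide's frequency after selection divided by its frequency in the unselected input library; frequency after pTyr selection over input frequency; kinase dosed for 20-30% of maximal phosphorylation in three min.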

Sequence | phosphorylation enrichment
CNPRRYPVLMS [OR2T1_Y182_L180R] | 0.625
ERRLIYTSDPK [VPS13D_Y864] | 0.563
EDKSIYRRGAC [PRKCI_Y125_R130C] | 0.496
CEHRGFLFLAI [TEK_Y897_Y897F_YF] | 0.949
PLKYLYPNIDK [STAT1_Y668] | 0.88
GFITSYREEEQ | 1.19
AIMSFYAALID [RYR1_Y2426] | 1.15
FATAGYGSLEA [EPHA10_Y959_A956T] | 0.833
RRNNSYTCFTA [SLC20A2_Y386_YF] | 2.81
TLQRMYGCDVG [HLA-B_Y123_S121R] | 0.857
QNVADYMRFLM [RPL5_Y207_YF] | 1.73
MKALGYFAVVK [OPA1_Y498_T503K] | 1.05
TAGFIYEKWEI [TEC_Y360_S359I] | 1.45
VMAALYGRLFE [BTD_Y536_T532M_YF] | 0.981
GRQWNYVASML [KLHL4_Y552_S557L] | 0.731
RLLVVYPWTQK [HBG1_Y36_R41K] | 0.842
SVMAEYGLFRA [VSX2_Y219_G223R_YF] | 0.77

Sequence | phosphorylation enrichment
VVKTVYSLQPP [KNSTRN_Y87] | 0.862
QPTPGYEVGQR [TSC2_Y1788_E1783Q] | 0.637
QYNPEYVQQAS [LRRC7_Y1058_H1054Y] | 1.16
TTKAKYKTPIF [PLD2_Y573_T577I_YF] | 0.588
SSSGAYGGGYG [KRT19_Y61] | 0.454
KMKGDYYRSLA [YWHAG_Y130_Y133S] | 0.54
EKKKFYDAKIE [CASP5_Y104_T106A_YF] | 0.751
EKKDLYKAGEQ [CFH_Y1008_V1007L] | 0.705
TISPFYCQSLF [CRYAA_Y48_R49C_YF] | 1.05
SVTCTYSLALN [TP53_Y126_P128L] | 1.21
GARGRYVMGGP [TNK1_Y277] | 0.7
FGVTLYPNSGE [MEP1A_Y472_R476G] | 1.28
DVQNAYDSNHC [ZFYVE16_Y36] | 0.999
ANRNVYEVEPT [MEGF10_Y1075] | 0.787
PATFTYDEFKK [COL8A2_Y648_YF] | 1.49
LHRAHYDLCHT [AHSG_Y314_R317C] | 0.814

Target: EPHB1 (UniProt P54762)
Experiment: as above

EPHB1, sequence (P54762 whole entry, looked up): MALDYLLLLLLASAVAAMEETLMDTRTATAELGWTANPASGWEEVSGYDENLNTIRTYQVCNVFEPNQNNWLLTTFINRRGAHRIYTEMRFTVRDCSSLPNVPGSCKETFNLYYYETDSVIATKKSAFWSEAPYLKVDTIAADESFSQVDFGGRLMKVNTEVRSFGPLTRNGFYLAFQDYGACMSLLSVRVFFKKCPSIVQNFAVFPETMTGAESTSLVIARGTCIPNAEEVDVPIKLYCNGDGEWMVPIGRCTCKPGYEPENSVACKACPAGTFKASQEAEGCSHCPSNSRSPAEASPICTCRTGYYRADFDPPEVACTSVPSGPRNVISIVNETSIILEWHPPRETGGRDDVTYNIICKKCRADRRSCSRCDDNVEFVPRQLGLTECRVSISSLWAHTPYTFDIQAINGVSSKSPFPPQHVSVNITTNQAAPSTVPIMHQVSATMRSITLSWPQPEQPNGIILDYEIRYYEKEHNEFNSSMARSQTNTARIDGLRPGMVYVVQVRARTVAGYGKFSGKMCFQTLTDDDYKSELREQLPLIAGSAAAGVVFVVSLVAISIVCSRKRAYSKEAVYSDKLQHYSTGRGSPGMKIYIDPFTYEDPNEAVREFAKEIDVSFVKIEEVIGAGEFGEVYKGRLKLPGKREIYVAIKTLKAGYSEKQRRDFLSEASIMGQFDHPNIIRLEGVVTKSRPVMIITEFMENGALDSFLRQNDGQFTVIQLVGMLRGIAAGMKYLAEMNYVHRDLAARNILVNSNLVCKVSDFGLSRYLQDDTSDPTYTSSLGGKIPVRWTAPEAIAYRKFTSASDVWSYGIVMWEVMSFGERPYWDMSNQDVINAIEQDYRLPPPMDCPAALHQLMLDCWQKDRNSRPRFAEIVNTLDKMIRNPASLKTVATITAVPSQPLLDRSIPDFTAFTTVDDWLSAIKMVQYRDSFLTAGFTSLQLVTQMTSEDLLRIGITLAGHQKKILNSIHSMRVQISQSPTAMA

Sequence | phosphorylation enrichment
CNPRRYPVLMS [OR2T1_Y182_L180R] | 0.49
ERRLIYTSDPK [VPS13D_Y864] | 0.307
EDKSIYRRGAC [PRKCI_Y125_R130C] | 0.34
CEHRGFLFLAI [TEK_Y897_Y897F_YF] | 0.392
PLKYLYPNIDK [STAT1_Y668] | 0.638
GFITSYREEEQ | 0.63
AIMSFYAALID [RYR1_Y2426] | 1.13
FATAGYGSLEA [EPHA10_Y959_A956T] | 0.368
RRNNSYTCFTA [SLC20A2_Y386_YF] | 0.96
TLQRMYGCDVG [HLA-B_Y123_S121R] | 0.535
QNVADYMRFLM [RPL5_Y207_YF] | 1.79
MKALGYFAVVK [OPA1_Y498_T503K] | 0.507
TAGFIYEKWEI [TEC_Y360_S359I] | 1.35
VMAALYGRLFE [BTD_Y536_T532M_YF] | 0.597
GRQWNYVASML [KLHL4_Y552_S557L] | 0.405
RLLVVYPWTQK [HBG1_Y36_R41K] | 0.581
SVMAEYGLFRA [VSX2_Y219_G223R_YF] | 0.481

Sequence | phosphorylation enrichment
VVKTVYSLQPP [KNSTRN_Y87] | 0.571
QPTPGYEVGQR [TSC2_Y1788_E1783Q] | 0.454
QYNPEYVQQAS [LRRC7_Y1058_H1054Y] | 0.687
TTKAKYKTPIF [PLD2_Y573_T577I_YF] | 0.38
SSSGAYGGGYG [KRT19_Y61] | 0.365
KMKGDYYRSLA [YWHAG_Y130_Y133S] | 0.369
EKKKFYDAKIE [CASP5_Y104_T106A_YF] | 0.4
EKKDLYKAGEQ [CFH_Y1008_V1007L] | 0.382
TISPFYCQSLF [CRYAA_Y48_R49C_YF] | 0.682
SVTCTYSLALN [TP53_Y126_P128L] | 0.688
GARGRYVMGGP [TNK1_Y277] | 0.504
FGVTLYPNSGE [MEP1A_Y472_R476G] | 0.597
DVQNAYDSNHC [ZFYVE16_Y36] | 0.505
ANRNVYEVEPT [MEGF10_Y1075] | 0.451
PATFTYDEFKK [COL8A2_Y648_YF] | 1.38
LHRAHYDLCHT [AHSG_Y314_R317C] | 0.572

Target: EPHB2 (UniProt P29323)
Experiment: as above

EPHB2, sequence (P29323 whole entry, looked up): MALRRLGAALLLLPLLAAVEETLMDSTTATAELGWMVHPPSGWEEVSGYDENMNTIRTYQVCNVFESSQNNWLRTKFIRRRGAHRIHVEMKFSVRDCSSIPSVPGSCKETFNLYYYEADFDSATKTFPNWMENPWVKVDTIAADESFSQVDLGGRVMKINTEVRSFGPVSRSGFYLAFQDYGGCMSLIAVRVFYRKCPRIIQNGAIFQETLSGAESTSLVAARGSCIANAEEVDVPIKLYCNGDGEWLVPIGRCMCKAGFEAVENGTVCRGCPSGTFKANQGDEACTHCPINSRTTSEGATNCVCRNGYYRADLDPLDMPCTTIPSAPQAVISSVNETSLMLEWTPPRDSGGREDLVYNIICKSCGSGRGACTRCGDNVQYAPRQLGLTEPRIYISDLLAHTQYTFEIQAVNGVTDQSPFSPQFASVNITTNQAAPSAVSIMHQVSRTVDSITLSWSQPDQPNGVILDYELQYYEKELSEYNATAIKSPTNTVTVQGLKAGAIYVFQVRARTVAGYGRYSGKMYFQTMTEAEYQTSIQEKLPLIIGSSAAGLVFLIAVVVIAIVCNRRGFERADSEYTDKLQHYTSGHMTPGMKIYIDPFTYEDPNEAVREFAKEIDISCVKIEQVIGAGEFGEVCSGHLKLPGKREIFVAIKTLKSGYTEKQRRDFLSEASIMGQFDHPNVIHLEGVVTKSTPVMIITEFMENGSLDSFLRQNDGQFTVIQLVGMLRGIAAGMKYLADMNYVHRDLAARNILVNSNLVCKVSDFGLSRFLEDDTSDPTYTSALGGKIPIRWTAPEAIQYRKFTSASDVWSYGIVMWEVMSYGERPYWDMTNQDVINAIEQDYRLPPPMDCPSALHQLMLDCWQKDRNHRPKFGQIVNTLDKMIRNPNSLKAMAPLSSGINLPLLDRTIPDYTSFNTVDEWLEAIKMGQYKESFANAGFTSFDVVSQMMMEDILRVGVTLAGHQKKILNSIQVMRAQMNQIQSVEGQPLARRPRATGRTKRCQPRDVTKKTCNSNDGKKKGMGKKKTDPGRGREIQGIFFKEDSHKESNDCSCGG

Sequence | phosphorylation enrichment
CNPRRYPVLMS [OR2T1_Y182_L180R] | 0.496
ERRLIYTSDPK [VPS13D_Y864] | 0.431
EDKSIYRRGAC [PRKCI_Y125_R130C] | 0.429
CEHRGFLFLAI [TEK_Y897_Y897F_YF] | 0.513
PLKYLYPNIDK [STAT1_Y668] | 0.69
GFITSYREEEQ | 0.775
AIMSFYAALID [RYR1_Y2426] | 0.667
FATAGYGSLEA [EPHA10_Y959_A956T] | 0.45
RRNNSYTCFTA [SLC20A2_Y386_YF] | 1.65
TLQRMYGCDVG [HLA-B_Y123_S121R] | 0.665
QNVADYMRFLM [RPL5_Y207_YF] | 1.92
MKALGYFAVVK [OPA1_Y498_T503K] | 0.569
TAGFIYEKWEI [TEC_Y360_S359I] | 1.45
VMAALYGRLFE [BTD_Y536_T532M_YF] | 0.743
GRQWNYVASML [KLHL4_Y552_S557L] | 0.481
RLLVVYPWTQK [HBG1_Y36_R41K] | 0.529
SVMAEYGLFRA [VSX2_Y219_G223R_YF] | 0.513

Sequence | phosphorylation enrichment
VVKTVYSLQPP [KNSTRN_Y87] | 0.45
QPTPGYEVGQR [TSC2_Y1788_E1783Q] | 0.474
QYNPEYVQQAS [LRRC7_Y1058_H1054Y] | 0.802
TTKAKYKTPIF [PLD2_Y573_T577I_YF] | 0.263
SSSGAYGGGYG [KRT19_Y61] | 0.403
KMKGDYYRSLA [YWHAG_Y130_Y133S] | 0.401
EKKKFYDAKIE [CASP5_Y104_T106A_YF] | 0.409
EKKDLYKAGEQ [CFH_Y1008_V1007L] | 0.432
TISPFYCQSLF [CRYAA_Y48_R49C_YF] | 0.579
SVTCTYSLALN [TP53_Y126_P128L] | 0.6
GARGRYVMGGP [TNK1_Y277] | 0.389
FGVTLYPNSGE [MEP1A_Y472_R476G] | 0.726
DVQNAYDSNHC [ZFYVE16_Y36] | 0.495
ANRNVYEVEPT [MEGF10_Y1075] | 0.5
PATFTYDEFKK [COL8A2_Y648_YF] | 1.24
LHRAHYDLCHT [AHSG_Y314_R317C] | 0.542

Target: FGFR1 (UniProt P11362)
Experiment: as above

FGFR1, sequence (P11362 whole entry, looked up): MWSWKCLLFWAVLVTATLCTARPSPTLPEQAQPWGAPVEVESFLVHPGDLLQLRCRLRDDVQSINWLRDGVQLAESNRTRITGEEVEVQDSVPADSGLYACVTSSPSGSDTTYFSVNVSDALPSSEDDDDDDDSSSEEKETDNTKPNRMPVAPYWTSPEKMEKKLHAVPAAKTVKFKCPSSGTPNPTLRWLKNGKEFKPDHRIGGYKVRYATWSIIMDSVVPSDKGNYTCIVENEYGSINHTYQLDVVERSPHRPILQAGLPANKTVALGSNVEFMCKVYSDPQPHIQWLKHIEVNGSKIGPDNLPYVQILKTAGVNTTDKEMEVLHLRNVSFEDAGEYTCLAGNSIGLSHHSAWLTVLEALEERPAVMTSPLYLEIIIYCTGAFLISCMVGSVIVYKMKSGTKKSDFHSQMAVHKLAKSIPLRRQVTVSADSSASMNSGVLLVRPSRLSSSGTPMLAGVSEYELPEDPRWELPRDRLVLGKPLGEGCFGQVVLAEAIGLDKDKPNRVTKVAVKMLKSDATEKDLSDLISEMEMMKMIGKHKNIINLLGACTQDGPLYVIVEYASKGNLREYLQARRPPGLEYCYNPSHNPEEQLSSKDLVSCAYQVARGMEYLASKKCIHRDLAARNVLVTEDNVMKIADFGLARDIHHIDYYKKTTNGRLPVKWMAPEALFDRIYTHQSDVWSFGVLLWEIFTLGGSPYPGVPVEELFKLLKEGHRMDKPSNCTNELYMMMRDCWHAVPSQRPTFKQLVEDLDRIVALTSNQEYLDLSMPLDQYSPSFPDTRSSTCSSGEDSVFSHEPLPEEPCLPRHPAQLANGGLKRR

Sequence | phosphorylation enrichment
CNPRRYPVLMS [OR2T1_Y182_L180R] | 0.384
ERRLIYTSDPK [VPS13D_Y864] | 0.486
EDKSIYRRGAC [PRKCI_Y125_R130C] | 0.42
CEHRGFLFLAI [TEK_Y897_Y897F_YF] | 0.484
PLKYLYPNIDK [STAT1_Y668] | 0.41
GFITSYREEEQ | 0.468
AIMSFYAALID [RYR1_Y2426] | 0.417
FATAGYGSLEA [EPHA10_Y959_A956T] | 0.52
RRNNSYTCFTA [SLC20A2_Y386_YF] | 0.886
TLQRMYGCDVG [HLA-B_Y123_S121R] | 0.5
QNVADYMRFLM [RPL5_Y207_YF] | 0.871
MKALGYFAVVK [OPA1_Y498_T503K] | 0.51
TAGFIYEKWEI [TEC_Y360_S359I] | 0.474
VMAALYGRLFE [BTD_Y536_T532M_YF] | 0.457
GRQWNYVASML [KLHL4_Y552_S557L] | 0.382
RLLVVYPWTQK [HBG1_Y36_R41K] | 0.473
SVMAEYGLFRA [VSX2_Y219_G223R_YF] | 0.514

Sequence | phosphorylation enrichment
VVKTVYSLQPP [KNSTRN_Y87] | 0.458
QPTPGYEVGQR [TSC2_Y1788_E1783Q] | 0.609
QYNPEYVQQAS [LRRC7_Y1058_H1054Y] | 0.854
TTKAKYKTPIF [PLD2_Y573_T577I_YF] | 0.481
SSSGAYGGGYG [KRT19_Y61] | 0.353
KMKGDYYRSLA [YWHAG_Y130_Y133S] | 0.718
EKKKFYDAKIE [CASP5_Y104_T106A_YF] | 0.431
EKKDLYKAGEQ [CFH_Y1008_V1007L] | 0.356
TISPFYCQSLF [CRYAA_Y48_R49C_YF] | 0.535
SVTCTYSLALN [TP53_Y126_P128L] | 0.653
GARGRYVMGGP [TNK1_Y277] | 0.481
FGVTLYPNSGE [MEP1A_Y472_R476G] | 0.524
DVQNAYDSNHC [ZFYVE16_Y36] | 0.487
ANRNVYEVEPT [MEGF10_Y1075] | 0.404
PATFTYDEFKK [COL8A2_Y648_YF] | 0.77
LHRAHYDLCHT [AHSG_Y314_R317C] | 0.513
